This is an account of results in patent publication US20200181243A1.

Where two headings read alike, the source gives them in different places.

Test [1] has as its target Hemagglutinin (HA).
For test [2], the target named is Hemagglutinin (HA). Briefly: Hemagglutinin (HA) binding ELISA potency; antibody in Formulation #3, t=0.

B1: Ab 044 (antibody, V domains shown)
VH: QVQLLETGGGLVKPGQSLKLSCAASGFTFTSYAMHWVRQPPGKGLEWVAVVSYDGNYKYYADSVQGRFTISRDNSKNTLYLQMNSLRAEDTAVYYCAKDSRLRSLLYFEWLSQGYFNPWGQGTTLTVSS
VL: DIQMTQSPSSLSASVGDRVTITCRSSQSITFDYKNYLAWYQQKPGKAPKLLIYWGSYLESGVPSRFSGSGSGTDFTLTISSLQPEDFATYYCQQHYRTPPSFGQGTKVEIK
Consider B1, for which, in test [1], the % Activity came out at 97% and the Average % Activity is 110%. In test [2], this molecule gave a % Activity of 123%.
